Experiments:
[1] = target: T1, TNO211 peptide (DABCYL-GABA-Pro-Gln-Gly-Leu-Glu(EDANS)-Ala-Lys-NH2)
T1 chain: PQGLEAK

[2] = target: Substrate AA
[3] = target: RH substrate

B1: MMP-2 (protein)
chain: YNFFPRKPKWDKNQITYRIIGYTPDLDPETVDDAFARAFQVWSDVTPLRFSRIHDGEADIMINFGRWEHGDGYPFDGKDGLLAHAFAPGTGVGGDSHFDDDELWTLGEGQVVRVKYGNADGEYCKFPFLFNGKEYNSCTDTGRSDGFLWCSTTYNFEKDGKYGFCPHEALFTMGGNAEGQPCKFPFRFQGTSYDSCTTEGRTDGYRWCGTTEDYDRDKKYGFCPETAMSTVGGNSEGAPCVFPFTFLGNKYESCTSAGRSDGKMWCATTANYDDDRKWGFCPDQGYSLFLVAAHEFGHAMGLEHSQDPGALMAPIYTYTKNFRLSQDDIKGIQELYGASPDIDLGTGPTPTLGPVTPEICKQDIVFDGIAQIRGEIFFFKDRFIWRTVTPRDKPMGPLLVATFWPELPEKIDAVYEAPQEEKAVFFAGNEYWIYSASTLERGYPKPLTSLGLPPDVQRVDAAFNWSKNKKTYIFAGDKFWRYNEVKKKMDPGFPKLIADAWNAIPDNLDAVVDLQGGGHSYFFKGAYYLKLENQSLKSVKFGSIKSDWLGC
- protease activity (fluorescence from cleavage of substrate TNO211), relative to pronase [1]: 17±4%

B2: proteinase K (protein)
chain: AAQTNAPWGLARISSTSPGTSTYYYDESAGQGSCVYVIDTGIEASHPEFEGRAQMVKTYYYSSRDGNGHGTHCAGTVGSRTYGVAKKTQLFGVKVLDDNGSGQYSTIIAGMDFVASDKNNRNCPKGVVASLSLGGGYSSSVNSAAARLQSSGVMVAVAAGNNNADARNYSPASEPSVCTVGASDRYDRRSSFSNYGSVLDIFGPGTSILSTWIGGSTRSISGTSMATPHVAGLAAYLMTLGKTTAASACRYIADTANKGDLSNIPFGTVNLLAYNNYQA
- visible color from cleavage of the dye-labelled immobilized substrate [2]: AA substrate reacted with pronase and proteinase K did produce a visible color within 2.5 h at 37 °C
- cleavage of the dye-labelled immobilized substrate (color generation) [3]: none of the enzyme preparations were successful in cleaving the RH substrate
